B1: TMEM106C (parent)
chain: YVTTNVSLIPPRSEQLVNFTGKAE
B2: MYL5 (parent)
chain: FQFASIDVAGNLDYKALSYVITHG

Variants of: B1
Assay: protein stability index of a GFP-peptide fusion (GPS, HEK-293T) (PSI 1-6); higher = more stable
Settings: c terminus: a fixed tail appended
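Further: lentivirally expressed fusions sorted by FACS into six bins by GFP to DsRed ratio, PSI derived from sequencing read proportions per bin multiplied by bin number.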

Protein stability index: each site, then its substitutions
N5: F 2.64, L 2.32, R 2.17, S 1.63, T 2.52, Y 2.98, I 2.24, P 2.67, A 1.91, Q 2.71, W 3.52, E 2.05, C 2.28, V 1.69, M 2.16, G 1.22, K 2.41, D 1.96, H 1.66
V6: C 1.82, N 2.26, G 1.77, L 2.06, K 1.87, I 1.86, E 2.36, D 2.37, F 3.64, T 2.02, Y 2.76, M 1.75, W 2.57, S 1.91, H 1.59, A 1.86, P 2, Q 1.68, R 1.92
Y1: K 3.61, E 3.54, H 3.88, G 4, M 3.08, N 3.79, F 2.21, A 3.53, P 3.49, V 2.19, C 2.4, W 2.15, R 3.44, Q 3.17, L 2.94, S 3.24, I 2.46, D 3.69, T 3.44
V2: D 4.58, N 4.08, P 3.98, L 2.83, Q 3.28, R 3.23, I 2.67, T 3.48, F 2.98, C 2.3, A 2.81, H 2.62, Y 3.22, K 3.51, G 4.17, M 3.03, E 4.58, W 2.66, S 3.79
L8: R 1.6, D 2.44, M 2.5, G 2.39, Y 1.86, A 2.21, K 1.71, W 2.1, N 1.98, F 2.54, V 1.67, I 2.04, Q 1.53, S 2.26, H 2.16, P 1.75, E 2.61, T 1.95, C 1.66
T4: M 2.59, L 2.45, F 1.43, S 1.86, K 1.77, P 2.43, E 1.94, Q 2.54, D 2.03, W 2.85, Y 2.24, G 1.89, N 2.1, H 2.07, I 1.75, V 1.51, A 1.71, R 2.23, C 1.29
T3: G 2.11, I 2.12, E 2.99, H 1.98, S 1.98, K 2.18, A 2.75, R 2.52, V 1.98, Q 2.64, M 1.46, Y 2.45, L 2.15, N 1.82, F 2.58, D 1.9, C 2.3, W 2.91, P 3.42
I9: K 2.02, N 2.17, G 1.6, L 1.7, H 2.46, C 1.2, D 2.24, E 2.25, A 2.94, M 1.86, F 1.7
S7: W 1.54, G 2.36, T 2.64, Y 3.23, H 2.29, E 2.13, V 1.79, L 2.45, P 2.81, I 3.34, R 2.13, C 2.56, D 2.37, M 1.57, K 1.36, F 1.83, A 1.31, N 2.18, Q 2.27

Variants of: B2
Assay: as above
Settings: c terminus: a fixed tail appended

Protein stability index of substitutions, site by site:
G24: T 3.18, L 3.92, R 3.26, Q 2.05
